Experimental findings from US20190225687A1 (I MAB, published 2019) are described below.

B1: 147H-6 (antibody, V domains shown)
VH: QVQLVQSGAEVKKPGASVKVSCKASGYTFTNYWLGWIKQAPGQGLEWIGDIYPGGDYINYNEKFKGKATLTADTSISTAYMELSRLRSDDTAVYYCARPNLPGDYWGQGTTVTVSS
VL: DIVMTQSPLSLPVTPGEPASISCRSSKSLLHSNGITYLYWYLQKPGQSPQLLIYQVSNLASGVPDRFSGSGSGTDFTLKISRVEAEDVGVYYCAQNLELPWTFGGGTKVEIK
B2: 147H-13 (antibody, V domains shown)
VH: EVQLVQSGAEVKKPGASVKVSCKASGYTFTNYWLGWIKQAPGQGLEWIGDIYPGGDYINYNEKFKGKATLTADTSISTAYMELSRLRSDDTAVYYCARPNLPGDYWGQGTTVTVSS
VL: DIVMTQSPLSLPVTPGEPASISCRSSKSLLHSNGITYLYWYLQKPGQSPQLLIYQVSNLASGVPDRFSGSGSGTDFTLKISRVEAEDVGVYYCAQNLELPWTFGGGTKVEIK
notes: also called 147H4-13
B3: 147H 3550 (antibody, V domains shown)
VH: EVQLVQSGAEVKKPGASVKVSCKASGYTFTNYWLGWIKQAPGQGLEWIGDIYPGGDYINYNEKFKGKATLTADTSISTAYMELSRLRSDDTAVYYCARPNLPKDHWGQGTTVTVSS
VL: DIVMTQSPLSLPVTPGEPASISCRSSKSLLHSNAITYLYWYLQKPGQSPQLLIYQVSNLASGVPDRFSGSGSGTDFTLKISRVEAEDVGVYYCAQYLELPWTFGGGTKVEIK
B4: 147H 3669 (antibody, V domains shown)
VH: EVQLVQSGAEVKKPGASVKVSCKASGYLFTNYWLGWIKQAPGQGLEWIGDIYPGGDYIVYNEKFKGKATLTADTSISTAYMELSRLRSDDTAVYYCARPNLPGDYWGQGTTVTVSS
VL: DIVMTQSPLSLPVTPGEPASISCRSSKSLLHSNAITYLYWYLQKPGQSPQLLIYQVSNLASGVPDRFSGSGSGTDFTLKISRVEAEDVGVYYCAQNLELPWTFGGGTKVEIK
B5: 147H 3668 (antibody, V domains shown)
VH: EVQLVQSGAEVKKPGASVKVSCKASGYTFTNYWLGWIKQAPGQGLEWIGDIYPGGDYIVYNEKFKGKATLTADTSISTAYMELSRLRSDDTAVYYCARPNLPGDYWGQGTTVTVSS
VL: DIVMTQSPLSLPVTPGEPASISCRSSKSLLHSNAITYLYWYLQKPGQSPQLLIYQVSNLATGVPDRFSGSGSGTDFTLKISRVEAEDVGVYYCAQNLELPWTFGGGTKVEIK
B6: 147H 3810 (antibody, V domains shown)
VH: EVQLVQSGAEVKKPGASVKVSCKASGYLFTNYWLGWIKQAPGQGLEWIGDIYPGGDYIVYNEKFKGKATLTADTSISTAYMELSRLRSDDTAVYYCARPNLPKDHWGQGTTVTVSS
VL: DIVMTQSPLSLPVTPGEPASISCRSSKSLLHSNAITYLYWYLQKPGQSPQLLIYQVSNLATGVPDRFSGSGSGTDFTLKISRVEAEDVGVYYCAQYLELPWTFGGGTKVEIK
notes: also called B3810
B7: 147H 3792 (antibody, V domains shown)
VH: EVQLVQSGAEVKKPGASVKVSCKASGYTFTNYWLGWIKQAPGQGLEWIGDIYPGGDYIVYNEKFKGKATLTADTSISTAYMELSRLRSDDTAVYYCARPNLPGDYWGQGTTVTVSS
VL: DIVMTQSPLSLPVTPGEPASISCRSSKSLLHSNAITYLYWYLQKPGQSPQLLIYQVSNLASGVPDRFSGSGSGTDFTLKISRVEAEDVGVYYCAQYLELPWTFGGGTKVEIK
B8: 147H 3808 (antibody, V domains shown)
VH: EVQLVQSGAEVKKPGASVKVSCKASGYTFTNYWLGWIKQAPGQGLEWIGDIYPGGDYIVYNEKFKGKATLTADTSISTAYMELSRLRSDDTAVYYCARPNLPKDHWGQGTTVTVSS
VL: DIVMTQSPLSLPVTPGEPASISCRSSKSLLHSNAITYLYWYLQKPGQSPQLLIYQVSNLASGVPDRFSGSGSGTDFTLKISRVEAEDVGVYYCGQYLELPWTFGGGTKVEIK
B9: 147H 3549 (antibody, V domains shown)
VH: EVQLVQSGAEVKKPGASVKVSCKASGYTFTNYWLGWIKQAPGQGLEWIGDIYPGGDYINYNEKFKGKATLTADTSISTAYMELSRLRSDDTAVYYCARPNLPKDHWGQGTTVTVSS
VL: DIVMTQSPLSLPVTPGEPASISCRSSKSLLHSNAITYLYWYLQKPGQSPQLLIYQVSNLASGVPDRFSGSGSGTDFTLKISRVEAEDVGVYYCAQYLEEPWTFGGGTKVEIK
B10: 147H 3809 (antibody, V domains shown)
VH: EVQLVQSGAEVKKPGASVKVSCKASGYLFTNYWLGWIKQAPGQGLEWIGDIYPGGDYIVYNEKFKGKATLTADTSISTAYMELSRLRSDDTAVYYCARPNLPKDHWGQGTTVTVSS
VL: DIVMTQSPLSLPVTPGEPASISCRSSKSLLHSNAITYLYWYLQKPGQSPQLLIYQVSNLASGVPDRFSGSGSGTDFTLKISRVEAEDVGVYYCAQYLELPWTFGGGTKVEIK
B11: 147H 3421 (antibody, V domains shown)
VH: EVQLVQSGAEVKKPGASVKVSCKASGYTFTNYWLGWIKQAPGQGLEWIGDIYPGGDYINYNEKFKGKATLTADTSISTAYMELSRLRSDDTAVYYCARPNLPKDHWGQGTTVTVSS
VL: DIVMTQSPLSLPVTPGEPASISCRSSKSLLHSNAITYLYWYLQKPGQSPQLLIYQVSNLASGVPDRFSGSGSGTDFTLKISRVEAEDVGVYYCAQNLELPWTFGGGTKVEIK
B12: 147H 3508 (antibody, V domains shown)
VH: EVQLVQSGAEVKKPGASVKVSCKASGYTFTNYWLGWIKQAPGQGLEWIGDIYPGGDYINYNEKFKGKATLTADTSISTAYMELSRLRSDDTAVYYCARPNLPKDHWGQGTTVTVSS
VL: DIVMTQSPLSLPVTPGEPASISCRSSKSLLHSNAITYLYWYLQKPGQSPQLLIYQVSNLASGVPDRFSGSGSGTDFTLKISRVEAEDVGVYYCGQNLELPWTFGGGTKVEIK
B13: 147H 3794 (antibody, V domains shown)
VH: EVQLVQSGAEVKKPGASVKVSCKASGYLFTNYWLGWIKQAPGQGLEWIGDIYPGGDYIVYNEKFKGKATLTADTSISTAYMELSRLRSDDTAVYYCARPNLPGDYWGQGTTVTVSS
VL: DIVMTQSPLSLPVTPGEPASISCRSSKSLLHSNAITYLYWYLQKPGQSPQLLIYQVSNLASGVPDRFSGSGSGTDFTLKISRVEAEDVGVYYCAQYLELPWTFGGGTKVEIK
B14: 147H 3663 (antibody, V domains shown)
VH: EVQLVQSGAEVKKPGASVKVSCKASGYTFENYWLGWIKQAPGQGLEWIGDIYPGGDYIVYNEKFKGKATLTADTSISTAYMELSRLRSDDTAVYYCARPNLPGDYWGQGTTVTVSS
VL: DIVMTQSPLSLPVTPGEPASISCRSSKSLLHSNAITYLYWYLQKPGQSPQLLIYQVSNLARGVPDRFSGSGSGTDFTLKISRVEAEDVGVYYCAQNLELPWTFGGGTKVEIK
B15: 147H 3811 (antibody, V domains shown)
VH: EVQLVQSGAEVKKPGASVKVSCKASGYLFTNYWLGWIKQAPGQGLEWIGDIYPGGDYIVYNEKFKGKATLTADTSISTAYMELSRLRSDDTAVYYCARPNLPKDHWGQGTTVTVSS
VL: DIVMTQSPLSLPVTPGEPASISCRSSKSLLHSNAITYLYWYLQKPGQSPQLLIYQVSNLATGVPDRFSGSGSGTDFTLKISRVEAEDVGVYYCGQYLELPWTFGGGTKVEIK
B16: 147H 3807 (antibody, V domains shown)
VH: EVQLVQSGAEVKKPGASVKVSCKASGYTFTNYWLGWIKQAPGQGLEWIGDIYPGGDYIVYNEKFKGKATLTADTSISTAYMELSRLRSDDTAVYYCARPNLPKDHWGQGTTVTVSS
VL: DIVMTQSPLSLPVTPGEPASISCRSSKSLLHSNAITYLYWYLQKPGQSPQLLIYQVSNLASGVPDRFSGSGSGTDFTLKISRVEAEDVGVYYCAQYLELPWTFGGGTKVEIK
notes: also called B3807

By Kd is commonly meant a measure of binding affinity in units of concentration. A high value points to weaker binding. As usually defined, the koff is the first-order rate constant of dissociation. Low readings indicate slow dissociation, high ones fast dissociation. A word on the kon: it is the rate constant with which the complex forms. Read a low kon as slow association. The term IC50 denotes the concentration at which inhibition is half-maximal. The low end stands for greater potency, the high end for weaker potency.

The first assay deals with T1, LAG3 antigen of the Octet RED96 runs (UniProt P18627 23-450, limits assumed).
T1 sequence (looked up): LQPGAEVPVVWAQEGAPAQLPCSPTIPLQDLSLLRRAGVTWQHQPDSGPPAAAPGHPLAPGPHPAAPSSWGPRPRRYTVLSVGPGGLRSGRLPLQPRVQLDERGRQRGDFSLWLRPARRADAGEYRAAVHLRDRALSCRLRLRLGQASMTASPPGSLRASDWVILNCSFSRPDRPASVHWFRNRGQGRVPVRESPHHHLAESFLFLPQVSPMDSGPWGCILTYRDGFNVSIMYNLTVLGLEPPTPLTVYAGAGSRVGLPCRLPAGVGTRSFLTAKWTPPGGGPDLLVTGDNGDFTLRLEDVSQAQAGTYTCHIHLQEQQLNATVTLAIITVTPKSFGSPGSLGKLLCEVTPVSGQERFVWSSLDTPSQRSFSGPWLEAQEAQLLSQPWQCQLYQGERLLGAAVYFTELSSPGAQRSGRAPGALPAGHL
The assay can be described thus: BLI, Octet RED96, full kinetics, antigen 3.125-50 nM. The protocol: The binding affinity was calculated by software in Octet® RED96 System.
For the molecule B1, binding was characterised by a dissociation constant (Kd) of 26.5 nM, the dissociation rate constant (koff) was 0.00312 s⁻¹ and the kon worked out at 118000 M⁻¹ s⁻¹.

The next assay deals with T2, human LAG3 of the LAG3 and MHC II binding assay kit (Cisbio, 64ICP03PEG) (human, UniProt P18627 23-450, limits assumed).
T2 construct: Bought kit reagent
T2 sequence (looked up): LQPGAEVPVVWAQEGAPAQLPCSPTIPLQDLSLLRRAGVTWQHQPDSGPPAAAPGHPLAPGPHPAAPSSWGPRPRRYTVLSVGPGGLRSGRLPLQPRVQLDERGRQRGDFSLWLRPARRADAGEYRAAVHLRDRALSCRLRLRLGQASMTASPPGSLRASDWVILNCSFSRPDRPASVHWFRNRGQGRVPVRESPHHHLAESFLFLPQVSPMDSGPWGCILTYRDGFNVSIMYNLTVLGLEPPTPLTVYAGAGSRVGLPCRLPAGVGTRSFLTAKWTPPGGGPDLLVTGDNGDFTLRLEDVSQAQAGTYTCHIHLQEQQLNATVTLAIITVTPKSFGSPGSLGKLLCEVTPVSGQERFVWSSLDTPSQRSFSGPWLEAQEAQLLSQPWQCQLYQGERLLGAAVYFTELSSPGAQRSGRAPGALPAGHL
Briefly: TR-FRET LAG3/MHC II binding assay (Cisbio); blocks MHC II. The protocol:
To measure the ability of anti-LAG3 monoclonal antibodies to block the interaction between human LAG3 and MHCII, the LAG3 and MHC II binding assay (Cisbio, 64ICP03PEG) were performed utilizing homogeneous TR-FRET technology, following the protocol provided by the kit manufacturer. Anti-human LAG3 antibodies were 3-fold diluted ranging from 100 nM to 5 pM (10 points). Fluorescence data was acquired on a PerkinElmer Envision plate reader and a four-parameter dose-response curve was fitted to obtain IC50 of each antibody.
Turning to B2, the IC50 lay in the range of 2.2 to 7.6 nM.
In the case of B3, the IC50 came out at 0.39 nM. In other words, the sub-nanomolar range.
As to B4, the IC50 is 1.2 nM.
On the same count and under the same terms, with B5 the figure was 0.9 nM; with B6, 0.63 nM; with B7, 0.73 nM.
Same read-out and setting: with B8 the figure was 0.5 nM.
In turn, B9 showed an IC50 of 0.44 nM.
B10 had an IC50 of 0.96 nM.
Consider B11, for which the IC50 came to 1.5 nM.
Same read-out and setting: with B12 the figure was 0.55 nM; with B13, 0.63 nM.
B14 registered an IC50 of 2.7 nM.
Still for that read-out and setting: with B15 the figure was 0.59 nM; with B16, 0.31 nM.
